Some results are limits rather than exact numbers.

This is an account of results in patent US20040043401A1.

In this assay the target is human prostate-specific membrane antigen (PSMA) (human) (UniProt Q04609). Kind of assay: cell-based or functional assay. As to conditions: for IL-2 content normalized for gene transfer efficiency, transduced PBLs on NIH3T3 feeder expressing PSMA + B7.1: scale: pg/ml divided by percentage transduced cells.
Sequence of human prostate-specific membrane antigen (PSMA) (human) (Q04609 whole entry): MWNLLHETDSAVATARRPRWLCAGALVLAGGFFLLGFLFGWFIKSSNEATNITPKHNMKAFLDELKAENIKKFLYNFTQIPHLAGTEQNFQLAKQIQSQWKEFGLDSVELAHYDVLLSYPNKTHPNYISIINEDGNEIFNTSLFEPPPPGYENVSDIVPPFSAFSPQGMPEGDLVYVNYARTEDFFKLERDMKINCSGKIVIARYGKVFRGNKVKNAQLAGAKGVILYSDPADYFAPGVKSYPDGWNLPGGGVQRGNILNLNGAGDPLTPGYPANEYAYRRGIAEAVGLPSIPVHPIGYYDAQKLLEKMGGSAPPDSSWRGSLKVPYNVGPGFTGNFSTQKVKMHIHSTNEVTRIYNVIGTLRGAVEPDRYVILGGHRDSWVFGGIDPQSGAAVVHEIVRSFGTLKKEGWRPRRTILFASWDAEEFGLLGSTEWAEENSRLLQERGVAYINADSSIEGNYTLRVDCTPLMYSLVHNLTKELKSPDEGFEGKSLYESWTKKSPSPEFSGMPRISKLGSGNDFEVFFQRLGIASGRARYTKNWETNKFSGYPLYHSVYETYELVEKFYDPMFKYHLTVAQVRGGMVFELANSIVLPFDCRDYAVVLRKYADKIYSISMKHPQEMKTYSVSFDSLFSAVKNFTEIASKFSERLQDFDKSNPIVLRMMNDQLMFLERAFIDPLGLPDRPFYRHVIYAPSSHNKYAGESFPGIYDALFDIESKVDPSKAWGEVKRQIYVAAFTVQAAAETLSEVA

Sequence of P28 fusion receptor (J591 scFv fused to human CD28) (P10747 114-220): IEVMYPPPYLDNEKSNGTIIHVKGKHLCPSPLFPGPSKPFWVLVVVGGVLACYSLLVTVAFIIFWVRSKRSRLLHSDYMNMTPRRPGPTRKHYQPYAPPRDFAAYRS

“P28 fusion receptor (J591 scFv fused to human CD28) (from UniProt P10747 114-220)”: the IL-2 concentration in supernatant (ELISA, 24 h), transduced PBLs on NIH3T3 feeder expressing PSMA is less than 50 pg/mL and the IL-2 concentration in supernatant (ELISA, 24 h), transduced PBLs on NIH3T3 feeder expressing PSMA + B7.1 was less than 50 pg/mL.

Turning to “Pz1 fusion receptor (J591 scFv - human CD8 alpha hinge and transmembrane - intracellular domain of human TCR zeta) (from UniProt P01732 137-209)”, the IL-2 concentration in supernatant (ELISA, 24 h), transduced PBLs on NIH3T3 feeder expressing PSMA is less than 50 pg/mL; the IL-2 concentration in supernatant (ELISA, 24 h), transduced PBLs on NIH3T3 feeder expressing PSMA + B7.1 is 164000 pg/mL; the IL-2 content normalized for gene transfer efficiency, transduced PBLs on NIH3T3 feeder expressing PSMA + B7.1 worked out at 3280.

With “Pz28 fusion receptor (Pz1 with the 41 amino acid intracellular domain of human CD28 at its C-terminus) (from UniProt P01732 137-209)”, the IL-2 concentration in supernatant (ELISA, 24 h), transduced PBLs on NIH3T3 feeder expressing PSMA was less than 50 pg/mL; the IL-2 concentration in supernatant (ELISA, 24 h), transduced PBLs on NIH3T3 feeder expressing PSMA + B7.1 worked out at 29700 pg/mL; the IL-2 content normalized for gene transfer efficiency, transduced PBLs on NIH3T3 feeder expressing PSMA + B7.1 was 958.
